Substrate: O=P(O)(O)OCC(O)CO
Assay: inorganic phosphate release (Ames), non-linear regression
Assay type: biochemical, Arabidopsis thaliana
Settings: 20 mM Tris-HCl pH 7.0, 5 mM MgCl2, 32 °C, apparent Km, MBP fusion
Text: inorganic phosphate release (Ames), non-linear regression on AtSgpp (MBP-AtSgpp, At2g38740)

B1: AtSgpp (MBP-AtSgpp, At2g38740) (Arabidopsis thaliana) (protein)
chain: MNGFSDLNPSESKPSLSQLAPLEAILFDVDGTLCDSDPIHLIAFQELLQEIGFNNGVPIDEKFFVENIAGKHNSEIALLLFPDDVSRGLKFCDEKEALYRKIVAEKIKPLDGLIKLTKWIEDRGLKRAAVTNAPKENAELMISKLGLTDFFQAVILGSECEFPKPHPGPYLKALEVLNVSKEHTLVFEDSISGIKAGVAAGMPVIGLTTGNPASLLMQAKPAFLIENYADPKLWAVLEELDNKS
notes: N-terminal MBP fusion (pMAL-c2X, Ile-Ser-Glu-Phe linker before Met1); E. coli TB1, amylose resin
For B1, the Km was “(7.3 ± 0.2) × 10^−3 M”, the Vmax was 0.498 µmol/min and the kcat was 23 ± 3 s⁻¹. The kcat/Km was 3100 M⁻¹ s⁻¹.

From paper PMC3607736, “HAD hydrolase function unveiled by substrate screening: enzymatic characterization of Arabidopsis thaliana subclass I phosphosugar phosphatase AtSgpp” (Planta, 2012)
